Measured values from article PMC9942873 (Immunity, 2023).

B1: RUPA-58 (antibody, V domains shown)
VH: QVQLVQSGPEAKKPGASVKVSCQASGYPFSGYYMHWLRQAPGQGLEWMGWMNPNSGGTKYAQRFQGRVTMTRDTSISTAHMELRGLRSDDTAVYYCARDYCTGSSCYRTDYDYWGQGTLVTVSS
VL: DIQMTQSPSSLSASVGDRVTITCRASQIISTYLNWYQHKPGKAPKLLIKSASTLQSGVPSRFSGSGSGTDFTLTITSLQPEDFATFYCQQSYRDPITFGQGTRLEIK
notes: human IgG1; source: recombinant human IgG1, 293T (Protein A purified) or GenScript
B2: RUPA-66 (antibody, V domains shown)
VH: QVQVQQWGAGLLKPSETLSLTCAAFGGSFSDYYWSWIRQPPGKGLEWIGEINHSGTTNYNPSLKSRVIISVDTSKNQFSLKLSSVTAADTALYYCARRSSGWYRRSRYTGWFDPWGQGTLVTVSS
VL: EILMTQSPATLSVSPGERATLSCRASQTITSNLAWYQQKPGQAPRLLMYGASTRATGIPARFSGSGSGTEFTLTISSLQSEDFGIYYCQQYNNWPGLSFGGGTKVEIK
notes: as for B1
B3: RUPA-71 (antibody, V domains shown)
VH: EEQLVESGGGLVKPGRSLRLSCSASGFTLGDYAVTWFRQASGKEPEWVGVIRTKDEGGTTEYAASVKGRFSILRDDSKSIAHLQMNSLKIEDTAVYYCTRNGLRWYDSSGPRGWAFDIWGPGTLVVVSS
VL: EIVMTQSPATVSVSPGERATLSCRTSQSVSNKLAWYQQKPGQAPRLLIYGASTRATGIPARFSGSGSGTQFTLTISSLQSEDFAVYYCQQYNNWPPWTFGRGTKVEIK
notes: as for B1
B4: RUPA-75 (antibody, V domains shown)
VH: QVQLQQWGAGLLKPSETLSLTCGVNGGSFTDYYWTWIRQPPGKGLEWIGDINHSGITNYNPSLKSRLTLSVDTSKSHFSLRLNSVTAADTALYFCARRSSGYYRGSRYTGWLDPWGQGTLVTVSS
VL: EIVMTQSPATLSVSPGERATLSCWASQSITSNLAWYQQKPGQAPRLLIYGASTRATGIPARFSGSGSGTGFTLTISTVQSEDFAVYYCQQYNNWPGLTFGGGTKVEIK
notes: as for B1
B5: RUPA-77 (antibody, V domains shown)
VH: QITLKESGPTLVKPTQTLTLTCSFSGFSLTTAGVAVAWIRQPPGQALEWLGIIYWNDDKRYNPSFQNRLTIAKDTSKNQVVLTMTNMDPVDTGTYYCAHRILAAYNYFDPWGQGTLVTVSS
VL: DIQMTQSPPSLSASVGDRVTITCRASQPINNFLNWYQQRPGKAPKLLIYAASRLQSGVPSRFSGSVSGTDFTLTISSLQQEDFAIYYCQQSYTSPLTFGGGTKVEIK
notes: as for B1
B6: RUPA-78 (antibody, V domains shown)
VH: EGQLLESGGDLVQPGGSLRLSCAASRFTFNTFAMTWVRQAPGKGLEWVSTISRSGSSTFYADSVKGRFTISRDNSKDTLYLQMNSLRAEDTALYSCAKFRTPRFSSSSGDALDLWGQGTMVTVSS
VL: EIVLTQSPGTLSLSPGERATLSCRASQSVSSSYFAWYQRRPGQAPRLVIDGASSRATGIPDRFSGSGSGTDFTLTISRLEPEDFAVYYCQQYGVSPGTFGQGTKLEIK
notes: as for B1
B7: RUPA-87 (antibody, V domains shown)
VH: QVQVVQSGAEVRKPGASVKVSCKTSGYTFIYYYIHWVRQAPGQGLEWLGWINPNSGGTKYAQQFQGRVTVTRDTSVSTAYMELNGLTSDDTAVYYCARVVAAEGYFDYWGQGTLLTVSS
VL: DIQMTQSPSSVSASVGDRVTITCRASQGISGWLAWYQQKPGKAPKLLIYAASTLQSGVPSRFSGSGSGTDFTLTISSLQPDDFATYFCQQANSFPLTFGGGTKISLK
notes: as for B1
B8: RUPA-88 (antibody, V domains shown)
VH: QVHLVQSGAEVKKPGASVKVSCKASGYNFLYHDITWVRQATGQGLEWLGWMNPNTGDTGYAQNFQGRVTMTRDMSRSTAYLELGSLRSEDTAVYYCARGVGSYHGSGGWLDPWGPGTLVIVSS
VL: QSVLTQPPSVSETPGQRVTISCSGSSSNIGLNTVNWYQQLPGTAPKLLIHNDNQRPSGVPDRFSGSKSGTSASLAISGLHSEDEADYYCATWDDSLKRRVFGGGTKLTVL
notes: as for B1
B9: RUPA-90 (antibody, V domains shown)
VH: EVQLVESGGGLVQPGGSLRLSCAASGFMFSSYWMTWVRQAPGKGLEWVANIKEDGSEKYYVDSVKGRFTISRDNAENSLYLHMNSLRAADTAVYYCAREGDVFVAPSAVRKGGVYGMDVWGQGTTVTVSS
VL: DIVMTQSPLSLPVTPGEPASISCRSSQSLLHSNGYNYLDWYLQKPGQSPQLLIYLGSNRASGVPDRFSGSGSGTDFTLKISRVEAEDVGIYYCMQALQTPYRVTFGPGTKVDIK
notes: as for B1
B10: RUPA-91 (antibody, V domains shown)
VH: QVQLVQSGAEVKKIGASVKVSCKASGYTFTSHDIIWVRQAAGQGLEWMGWMNPNTGKKGYVEKFQGRVTLTRNMSTGTAYMELSSLRSDDTAVYYCARGVGTYHGSEGWLDPWGQGTLITVSS
VL: QSVLTQPPSASETPGQRVTISCSGSSSNVGSNSVNWYQQVPGTAPKLLIYNTNQRPSGVPARFSGSKSGTSASLAISGLHSEDEADYYCATWDGSLKKGVFGGGTKVTVL
notes: as for B1
B11: RUPA-92 (antibody, V domains shown)
VH: QVQLVQSGAEVKKPGASVKVSCKASGYTFTSHDIIWVRQATGQGLEWMGWMNPNTGDKGYAQKFQGRVTMTRSMSISTAYMELRSLRSEDTAVYYCARGVGTYRGSGGWFDPWGPGTLITVSS
VL: QSALTQPRSVSGSPGQSVTISCTGTSGDVGGFNYVSWYQQHPGKTPRLMLYHVTKRPSGVPDRFSGSKSGNTASLTISGLQADDEADYYCCSYAGNYIEIFGGGTKLTVL
notes: as for B1
B12: RUPA-99 (antibody, V domains shown)
VH: QVHLVQSGAEVKKPGASVKVSCKASGYNFLYHDITWVRQATGQGLEWLGWMNPNTGDTGYAQNFQGRVTMTRDMSRSTAYMELDSLRSEDTAVYYCARGVGSYHGSGGWLDPWGPGTLVIVSS
VL: QSVLTQPPSVSETPGQRVTISCSGSSSNIGLNTVNWYQQLPGTAPNLLIHNDNQRPSGVPDRFSGSKSGTSASLAISGLHSEDEADYYCATWDDSLKRRVFGGGTKLTVL
notes: as for B1
B13: RUPA-165 (antibody, V domains shown)
VH: VQLQQWGAGLLKPSETLSLTCLVNGGSFSDYYWSWIRQPPGRGLEWIGDVNHSGTTNHRPSLQSRVTLSLDMSKNQFSLKLTSVTAADTAVYFCARRSSGYYRGSRYTGWLDPWGQGTLVTVSS
VL: IVMTQSPLSLSVSPGERATLSCRASQTITRNLAWYQQKPGQAPRLLIYGASTRAPDIPARFSASGSGTEFTLTISSLQSEDFALYYCQQYNNWPGLTFGGGTKVEIK
notes: as for B1
B14: RUPA-26 (antibody, V domains shown)
VH: QVQLQQWGAGLLKPSETLSLTCLVNGGSFSDYYWSWIRQPPGRGLEWIGDVNHSGTTNHRPSLQSRVTLSLDMSKNQFSLKLTSVTAADTAVYFCARRSSGYYRGSRYTGWFDPWGQGTLVTVSS
VL: EIVLTQSPATLSVSPGERATLSCRASQTITRNLAWYQQKPGQAPRLLIYGASTRAPDIPARFSGSGSGTEFTLTISSLQSEDFALYYCQQYNNWPGLTFGGGTKVEIK
notes: as for B1
B15: RUPA-30 (antibody, V domains shown)
VH: QVQLVQSGAEVKKPGASVKVSCKASGYTFTTYFLHWVRQAPGQGLEWMGVIHPSGGSTTYAENFEGRVTMSRDTSTSTVYMELSSVRYEDTAVYYCARAGEYCRGIRCYIDGLDIWGQGTTVTVSS
VL: DIQMTQSPSSLSASVGDRVTITCRASQGIRNDLGWYQQKPGKAPKRLIYAASSLQSGVPSRFSGSGSGTEFTLTISSLQPEDFATYYCLQHNDSPWTFGQGTKVEIK
notes: as for B1
B16: RUPA-36 (antibody, V domains shown)
VH: QVQLQQWGAGLLKPSETLSLTCAVEGDSLGDYYWSWIRQPPGKGLEWIGDINHSGTTNYIPSLKSRVTISVDPSRKHFSLKLNFVTAADTATYFCARRASGWYRQSRYTGWFDPWGQGTLVTVSS
VL: EIVMTQSPATLSVSPGERATLSCRASHSINSNVAWYQQKPGQAPRLLIYGASTRATGIPARFSGSGSGTEFTLTISSLQTEDFAVYYCQQYNNWPGLSFGGGTKVEIK
notes: as for B1
B17: RUPA-37 (antibody, V domains shown)
VH: QEQLVQSGAELRTPGATVKVSCKAPAYTFTTYFMHWVRQAPGRGFEWLGRINPSRGSTTYADKFQGRVTMTSDTSTTTVFMEVTNLRSEDTAVYYCARAGEYCRGIRCYVDGIDMWGQGTMITVSS
VL: DIQMTQSPSSLSASIGDRVTITCRASQGIRNDLGWYQQKPGKAPQRLIYAASSLQSGVPSRFSGSGSGTEFTLTISSLQPEDFASYFCLQHNSSPWTFGQGTKVEIK
notes: as for B1
B18: RUPA-45 (antibody, V domains shown)
VH: QVQLQQWGAGLLKPSETLSLTCLVNGGSFSDYYWSWIRQPPGRGLEWIGDVNHSGTTNHRPSLQSRVTLSLDMSKNQFSLRLTSVTAADTAVYFCARRSSGYYRGSHYTGWFDPWGQGTLVTVSS
VL: EIVLTQSPATLSVSPGERATLSCRASQTITRNLAWYQQKPGQAPRLLIYGASTRAPDIPARFSGSGSGTEFTLTISSLQSEDFALYYCQQYNNWPGLTFGGGTKVEIK
notes: as for B1
B19: RUPA-46 (antibody, V domains shown)
VH: QVQLVQSGGGLVKPGGSLKLSCAASGFAFSDYYMHWIRQSPGKGLEWISYVSNSGNTIYYADSVKGRFTISRDNTKNSLFLQMNSLSADDTAVYYCARDRKGRNSETYYGALDVWGQGTTVTVST
VL: DIVMTQSLDSLAVSLGERATINCKSSQSVFSTYNNKNYLAWYQQKLGQPPKLLIYWASTRESGVPDRFSGSGSGTDFTLTISSLQAEDVAVYYCQQYYTTPTWTFGQGTKVEIK
notes: as for B1

Legend:
Test in all cases: ELISA
Details in all cases: both partners purified
[1] = target: T1, recombinant full-length Pfs48/45 (Plasmodium falciparum 3D7, UniProt Q8I6T1)
Pfs48/45 D1-2 [2] = target: T2, Pfs48/45 D1-2 (Plasmodium falciparum 3D7, UniProt Q8I6T1)
Pfs48/45 D2-3 = Pfs48/45 D2-3 (Plasmodium falciparum 3D7, UniProt Q8I6T1)
[3] = target: T1, recombinant full-length Pfs48/45; remark: listed apart in the source
Pfs48/45 D1-2 [4] = target: T2, Pfs48/45 D1-2; remark: listed apart in the source

Sequence of Pfs48/45 D2-3 (Q8I6T1 184-428): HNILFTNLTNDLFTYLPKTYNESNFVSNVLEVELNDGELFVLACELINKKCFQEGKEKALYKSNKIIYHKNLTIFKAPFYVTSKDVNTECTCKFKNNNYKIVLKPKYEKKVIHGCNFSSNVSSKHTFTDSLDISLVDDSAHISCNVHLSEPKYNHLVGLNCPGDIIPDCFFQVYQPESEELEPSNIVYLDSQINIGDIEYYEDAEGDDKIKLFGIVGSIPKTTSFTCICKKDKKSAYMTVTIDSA
T2 sequence (Q8I6T1 28-289): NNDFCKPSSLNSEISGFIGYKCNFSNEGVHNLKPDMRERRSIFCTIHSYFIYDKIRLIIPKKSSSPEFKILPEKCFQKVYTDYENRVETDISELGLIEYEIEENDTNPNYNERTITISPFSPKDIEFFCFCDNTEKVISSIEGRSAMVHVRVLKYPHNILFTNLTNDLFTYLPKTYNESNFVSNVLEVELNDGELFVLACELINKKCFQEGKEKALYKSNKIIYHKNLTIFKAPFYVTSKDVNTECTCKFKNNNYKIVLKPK
T1 sequence (Q8I6T1 28-428): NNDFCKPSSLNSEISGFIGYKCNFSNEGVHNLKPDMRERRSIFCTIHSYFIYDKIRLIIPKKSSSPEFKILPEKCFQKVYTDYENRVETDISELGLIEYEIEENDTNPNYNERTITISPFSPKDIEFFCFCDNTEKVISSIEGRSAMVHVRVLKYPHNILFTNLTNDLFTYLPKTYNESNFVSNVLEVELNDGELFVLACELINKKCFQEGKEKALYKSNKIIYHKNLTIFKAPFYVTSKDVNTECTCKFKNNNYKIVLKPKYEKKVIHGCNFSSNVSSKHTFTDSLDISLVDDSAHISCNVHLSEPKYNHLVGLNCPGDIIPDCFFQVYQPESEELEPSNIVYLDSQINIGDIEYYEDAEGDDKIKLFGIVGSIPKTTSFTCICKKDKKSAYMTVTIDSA

Binder	binding result [1]	binding result (Pfs48/45 D1-2 [2])	binding result (Pfs48/45 D2-3)	binding result [3]	binding result (Pfs48/45 D1-2 [4])
B1	binds	binds	–	–	–
B2	binds	binds	–	–	–
B3	binds	binds	–	–	–
B4	binds	binds	–	–	–
B5	binds	binds	–	–	–
B6	binds	binds	–	–	–
B7	–	–	binds	binds	binds
B8	–	–	binds	binds	binds
B9	–	–	binds	binds	binds
B10	–	–	binds	binds	binds
B11	–	–	binds	binds	binds
B12	–	–	binds	binds	binds
B13	–	–	–	binds	binds
B14	binds	binds	–	–	–
B15	binds	binds	–	–	–
B16	binds	binds	–	–	–
B17	binds	binds	–	–	–
B18	binds	binds	–	–	–
B19	binds	binds	–	–	–
